Test results taken from US20260043020A1, “BINDING MEMBERS WITH ALTERED DIVERSITY SCAFFOLD DOMAINS” (priority 2016, published 2026).

Tests used:
human ASIC1a (human) = biological target: T1, human ASIC1a (human) (UniProt P78348); assay: cell-based or functional assay
T1 sequence (looked up): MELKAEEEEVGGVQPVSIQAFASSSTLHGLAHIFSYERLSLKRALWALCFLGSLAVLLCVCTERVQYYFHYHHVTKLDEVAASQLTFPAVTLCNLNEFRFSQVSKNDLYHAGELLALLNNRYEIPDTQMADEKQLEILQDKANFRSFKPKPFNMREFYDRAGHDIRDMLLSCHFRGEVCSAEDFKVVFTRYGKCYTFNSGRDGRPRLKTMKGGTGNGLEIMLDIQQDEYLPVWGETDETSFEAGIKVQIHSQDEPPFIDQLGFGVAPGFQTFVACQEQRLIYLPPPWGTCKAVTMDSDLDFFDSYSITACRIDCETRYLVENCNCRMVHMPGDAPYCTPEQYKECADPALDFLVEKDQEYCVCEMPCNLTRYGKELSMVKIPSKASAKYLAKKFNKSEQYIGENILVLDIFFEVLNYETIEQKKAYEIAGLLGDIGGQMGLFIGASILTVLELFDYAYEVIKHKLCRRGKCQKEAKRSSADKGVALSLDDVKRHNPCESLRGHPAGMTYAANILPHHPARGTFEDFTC

human Kv 1.3 (human) = human Kv 1.3 (human) (UniProt P22001); assay: cell-based or functional assay
Chain of human Kv 1.3 (human) (P22001 whole entry): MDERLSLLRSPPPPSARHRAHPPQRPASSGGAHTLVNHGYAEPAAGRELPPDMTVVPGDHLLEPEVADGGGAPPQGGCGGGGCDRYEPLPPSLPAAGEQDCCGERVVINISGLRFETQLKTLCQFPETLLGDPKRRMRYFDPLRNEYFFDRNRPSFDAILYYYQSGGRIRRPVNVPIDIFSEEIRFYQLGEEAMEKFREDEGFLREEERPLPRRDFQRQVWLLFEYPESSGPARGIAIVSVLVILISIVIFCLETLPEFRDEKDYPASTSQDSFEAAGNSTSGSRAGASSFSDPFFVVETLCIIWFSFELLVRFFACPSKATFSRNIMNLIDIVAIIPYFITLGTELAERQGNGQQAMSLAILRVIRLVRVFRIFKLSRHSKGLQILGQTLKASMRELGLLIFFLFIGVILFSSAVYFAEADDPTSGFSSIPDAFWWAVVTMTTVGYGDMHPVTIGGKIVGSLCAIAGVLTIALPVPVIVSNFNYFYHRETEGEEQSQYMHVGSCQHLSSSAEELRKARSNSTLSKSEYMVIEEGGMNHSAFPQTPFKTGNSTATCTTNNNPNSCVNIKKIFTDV

β-galactosidase = assay: monoclonal phage TRF ELISA on B-galactosidase
Chain of β-galactosidase (P00722 2-1024): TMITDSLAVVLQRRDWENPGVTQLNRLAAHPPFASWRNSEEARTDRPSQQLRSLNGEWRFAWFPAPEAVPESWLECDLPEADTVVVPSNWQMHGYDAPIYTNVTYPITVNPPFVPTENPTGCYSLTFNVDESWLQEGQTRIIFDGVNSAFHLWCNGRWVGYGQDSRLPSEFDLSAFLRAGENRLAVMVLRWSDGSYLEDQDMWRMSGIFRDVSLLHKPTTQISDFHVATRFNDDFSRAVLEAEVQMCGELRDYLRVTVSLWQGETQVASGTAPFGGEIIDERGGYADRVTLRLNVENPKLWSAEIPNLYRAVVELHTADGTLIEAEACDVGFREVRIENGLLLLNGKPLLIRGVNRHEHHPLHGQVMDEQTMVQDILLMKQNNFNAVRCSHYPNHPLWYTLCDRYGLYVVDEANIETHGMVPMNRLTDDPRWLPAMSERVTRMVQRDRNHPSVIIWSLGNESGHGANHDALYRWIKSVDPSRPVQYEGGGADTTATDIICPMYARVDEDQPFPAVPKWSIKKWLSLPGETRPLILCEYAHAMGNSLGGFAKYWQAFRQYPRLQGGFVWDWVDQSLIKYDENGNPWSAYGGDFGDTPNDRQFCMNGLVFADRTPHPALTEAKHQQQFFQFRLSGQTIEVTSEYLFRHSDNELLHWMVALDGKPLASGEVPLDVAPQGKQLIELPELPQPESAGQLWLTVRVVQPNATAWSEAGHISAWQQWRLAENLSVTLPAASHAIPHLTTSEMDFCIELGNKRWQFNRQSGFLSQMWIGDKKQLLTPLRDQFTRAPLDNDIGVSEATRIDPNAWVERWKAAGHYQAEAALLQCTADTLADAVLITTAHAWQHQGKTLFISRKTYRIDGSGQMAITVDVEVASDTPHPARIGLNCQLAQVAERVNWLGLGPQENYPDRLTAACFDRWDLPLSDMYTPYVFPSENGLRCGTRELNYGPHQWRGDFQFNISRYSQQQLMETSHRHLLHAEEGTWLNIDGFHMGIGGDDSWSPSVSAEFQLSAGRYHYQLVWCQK

trypsin [1] = assay: flow cytometry, biotinylated trypsin with streptavidin-APC
trypsin [2] = assay: flow cytometry of HEK293 cells 15 days post transfection, biotinylated trypsin/streptavidin-APC (FL4) against anti-Fc-PE (FL2)

B1: KB_A07 IgG1 (EETI-II fusion, isotype control) (antibody, V domains shown)
VH: EVQLVESGGGLVRPGGSLRLSCAASGFTFSSYAMSWVRQAPGKGLEWVSAISGSGGSTYYADSVKGRFTISRDNTKNSLYLQMTSLRADDTAFYYCVKDFGPGYGTGWFDYWGPGTLVTVSS
VL: YLNWYQQKPGKAPKLLIYAAGVCPRILMRCKQDSDCLAGCVCGPNGFCGSRSGVPSRFSGSGSGTDFTLTISSLQPEDFATYYCQQGASPPYTFGQGTKVEIKR
- % ASIC1a current remaining, 6 µM KnotBody (QPatch, HEK293 cells) (human ASIC1a (human)): 70.9%
- IC50, inhibition of huKv1.3 currents (QPatch, CHO cells) (human Kv 1.3 (human)): > 10000 nM

B2: KB_A12_Shk (antibody, V domains shown)
VH: EVQLVESGGGLVRPGGSLRLSCAASGFTFSSYAMSWVRQAPGKGLEWVSAISGSGGSTYYADSVKGRFTISRDNTKNSLYLQMTSLRADDTAFYYCVKDFGPGYGTGWFDYWGPGTLVTVSS
VL: NWYQQLPGKAPKLLIYAAGRRSCIDTIPKSRCTAFQCKHSMKYRLSFCRKTCGTCANSGVSDRFSAAKSGTSASLAINGLRSEDEADYYCAAWDDSLNGYVFGTGTKLTVLG
- IC50, inhibition of huKv1.3 currents (QPatch, CHO cells) (human Kv 1.3 (human)): 20 nM

B3: KB A12_B-gal_F07 (scFv, V domains shown)
VH: EVQLVESGGGLVRPGGSLRLSCAASGFTFSSYAMSWVRQAPGKGLEWVSAISGSGGSTYYADSVKGRFTISRDNTKNSLYLQMTSLRADDTAFYYCVKDFGPGYGTGWFDYWGPGTLVTVSS
VL: AVNWYQQLPGKAPKLLIYAAGRCRTTANVRRHCKQDSDCLAGCVCGPNGFCGANSGVSDRFSAAKSGTSASLAINGLRSEDEADYYCAAWDDSLNGYVFGTGTKLTVLG
- TRF signal (β-galactosidase): 246000

B4: KB_A12 IgG1 (EETI-II fusion, isotype control) (antibody, V domains shown)
VH: EVQLVESGGGLVRPGGSLRLSCAASGFTFSSYAMSWVRQAPGKGLEWVSAISGSGGSTYYADSVKGRFTISRDNTKNSLYLQMTSLRADDTAFYYCVKDFGPGYGTGWFDYWGPGTLVTVSS
VL: AVNWYQQLPGKAPKLLIYAAGRCPRILMRCKQDSDCLAGCVCGPNGFCGANSGVSDRFSAAKSGTSASLAINGLRSEDEADYYCAAWDDSLNGYVFGTGTKLTVLG
- % ASIC1a current remaining, 3.3 µM KnotBody (QPatch, HEK293 cells) (human ASIC1a (human)): 67.4%
- IC50, inhibition of huKv1.3 currents (QPatch, CHO cells) (human Kv 1.3 (human)): > 10000 nM

B5: KB_A07 scFv-Fc, membrane anchored on HEK293 cells (Fc fusion)
VH: EVQLVESGGGLVRPGGSLRLSCAASGFTFSSYAMSWVRQAPGKGLEWVSAISGSGGSTYYADSVKGRFTISRDNTKNSLYLQMTSLRADDTAFYYCVKDFGPGYGTGWFDYWGPGTLVTVSS
VL: DIQMTQSPSSLSASVGDRVTITCRASQSISSYLNWYQQKPGKAPKLLIYAAGVCPRILMRCKQDSDCLAGCVCGPNGFCGSRSGVPSRFSGSGSGTDFTLTISSLQPEDFATYYCQQGASPPYTFGQGTKVEIKRT
- % of transfected HEK293 cells dual stained for Fc and trypsin (trypsin [1]): 34%
- cells in Q1 (trypsin/streptavidin-APC positive, anti-Fc-PE negative) (trypsin [2]): 3.65%
- cells in Q2 (anti-Fc-PE positive and trypsin/streptavidin-APC positive) (trypsin [2]): 33.8%
- cells in Q3 (anti-Fc-PE positive, trypsin/streptavidin-APC negative) (trypsin [2]): 11.1%

B6: KB_A12 scFv-Fc, membrane anchored on HEK293 cells (Fc fusion)
VH: EVQLVESGGGLVRPGGSLRLSCAASGFTFSSYAMSWVRQAPGKGLEWVSAISGSGGSTYYADSVKGRFTISRDNTKNSLYLQMTSLRADDTAFYYCVKDFGPGYGTGWFDYWGPGTLVTVSS
VL: QSVLTQPPSVSEAPRQRVTITCSGSSSNIGNNAVNWYQQLPGKAPKLLIYAAGRCPRILMRCKQDSDCLAGCVCGPNGFCGANSGVSDRFSAAKSGTSASLAINGLRSEDEADYYCAAWDDSLNGYVFGTGTKLTVLGQP
- % of transfected HEK293 cells dual stained for Fc and trypsin (trypsin [1]): 11%
- cells in Q1 (trypsin/streptavidin-APC positive, anti-Fc-PE negative) (trypsin [2]): 1.54%
- cells in Q2 (anti-Fc-PE positive and trypsin/streptavidin-APC positive) (trypsin [2]): 11.2%
- cells in Q3 (anti-Fc-PE positive, trypsin/streptavidin-APC negative) (trypsin [2]): 3.78%

B7: KB_A07_Kaliotoxin (KTX) (antibody, V domains shown)
VH: EVQLVESGGGLVRPGGSLRLSCAASGFTFSSYAMSWVRQAPGKGLEWVSAISGSGGSTYYADSVKGRFTISRDNTKNSLYLQMTSLRADDTAFYYCVKDFGPGYGTGWFDYWGPGTLVTVSS
VL: DIQMTQSPSSLSASVGDRVTITCRASQSISSYLNWYQQKPGKAPKLLIYAAGVGVEINVKCSGSPQCLKPCKDAGMRFGKCMNRKCHCTPKSRSGVPSRFSGSGSGTDFTLTISSLQPEDFATYYCQQGASPPYTFGQGTKVEIKR
- IC50, inhibition of huKv1.3 currents (QPatch, CHO cells) (human Kv 1.3 (human)): 900 nM
